According to patent publication US20250250357A1 (NANJING ZAIMING PHARMACEUTICAL, published 2025):
Positions count from the first letter of the chain named. Read-outs that look alike come from different tables or passages of the source. Blank lines part the entries; values can stand above or below the binder they belong to.

Tests used:
human MSLN-R3 protein [1] = target: T1, human MSLN-R3 protein (human, UniProt Q13421 487-598); assay: ELISA, MSLN-R3 coated, antibody 0.1 nM
T1 construct: also called hMSLN-R3
T1 sequence (Q13421 495-606): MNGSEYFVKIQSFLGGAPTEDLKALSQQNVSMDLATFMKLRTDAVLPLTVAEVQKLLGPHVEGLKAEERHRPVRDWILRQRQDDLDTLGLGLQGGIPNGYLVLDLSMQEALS

human MSLN-R3 protein [2] = target: T1, human MSLN-R3 protein; assay: ELISA, MSLN-R3 coated, antibody 0.001 nM
human MSLN-R3 protein [3] = target: T1, human MSLN-R3 protein; assay: ELISA, MSLN-R3 coated, antibody 100 nM
human MSLN-R3 protein [4] = target: T1, human MSLN-R3 protein; assay: ELISA, MSLN-R3 coated, antibody 0.01 nM
[5] = target: T2, human MSLN on OVCAR3 tumor cells (human, UniProt Q13421 296-598); assay: FACS, OVCAR3 cells
T2 construct: whole, on cells; also called human MSLN protein

[6] = target: T3, human MSLN-hFc recombinant protein (human, UniProt Q13421 296-580); assay: SPR (Biacore 8K), MSLN-hFc captured, antibody injected
T3 construct: Captured by an anti-human IgG antibody on the chip; also called human MSLN protein; Acro MSN-H5253
T3 sequence (Q13421 other isoform, or with tags, fused parts or gaps): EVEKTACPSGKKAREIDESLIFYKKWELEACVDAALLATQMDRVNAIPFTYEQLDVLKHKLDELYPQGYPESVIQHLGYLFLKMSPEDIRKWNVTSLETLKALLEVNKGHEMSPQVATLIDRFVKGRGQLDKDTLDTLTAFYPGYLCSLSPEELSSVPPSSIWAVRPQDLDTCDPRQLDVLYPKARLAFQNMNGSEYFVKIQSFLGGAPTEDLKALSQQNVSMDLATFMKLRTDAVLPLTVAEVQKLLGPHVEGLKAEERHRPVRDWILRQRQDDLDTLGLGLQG

human MSLN-R3 protein [7] = target: T1, human MSLN-R3 protein; assay: ELISA, MSLN-R3 coated, antibody 1 nM
[8] = target: T4, human MSLN-R3 on HEK293T-hMSLN-R3 recombinant cells (human, UniProt Q13421 487-606); assay: FACS, HEK293T-hMSLN-R3 cells
T4 construct: the C-terminal limit is uncertain; also called human MSLN-R3 membrane protein
T4 sequence (Q13421 495-614): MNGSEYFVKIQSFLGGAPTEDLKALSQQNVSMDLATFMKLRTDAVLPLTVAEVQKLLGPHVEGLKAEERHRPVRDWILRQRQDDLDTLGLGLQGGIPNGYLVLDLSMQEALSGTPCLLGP

human MSLN-R3 protein [9] = target: T1, human MSLN-R3 protein; assay: ELISA, MSLN-R3 coated, antibody 10 nM
human MSLN-R3 protein [10] = target: T1, human MSLN-R3 protein; assay: ELISA, MSLN-R3 coated, antibody 0.0001 nM
[11] = target: T5, monkey MSLN on HEK293T-monkey MSLN recombinant cells (monkey); assay: FACS, HEK293T-monkey MSLN cells
T5 construct: Full-length precursor as transfected; processing on the cell is not described; also called HEK293-monkey MSLN
T5 chain: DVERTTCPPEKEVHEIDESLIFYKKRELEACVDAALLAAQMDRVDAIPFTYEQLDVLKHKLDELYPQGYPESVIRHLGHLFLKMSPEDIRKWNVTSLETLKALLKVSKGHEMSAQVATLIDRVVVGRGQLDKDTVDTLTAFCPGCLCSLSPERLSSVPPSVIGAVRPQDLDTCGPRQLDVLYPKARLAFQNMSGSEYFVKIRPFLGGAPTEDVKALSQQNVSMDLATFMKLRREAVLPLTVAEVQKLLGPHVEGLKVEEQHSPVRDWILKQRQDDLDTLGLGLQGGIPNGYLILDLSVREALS

[12] = target: T6, human MSLN-hFc protein (Acro, Cat. No. MSN-H5253) (human, UniProt Q13421 296-580); assay: ELISA, coated human MSLN-hFc
T6 construct: bought

[13] = target: T7, human MSLN-FL-his protein (human, UniProt Q13421 296-580); assay: SPR (Biacore), antibody captured on Protein A, MSLN-FL-his injected
T7 construct: also called hMSLN-FL-his; human MSLN full-length protein

[14] = target: T4, human MSLN-R3 on HEK293T-hMSLN-R3 …; assay: FACS, HEK293T-hMSLN-R3 cells; remark: listed apart in the source
[15] = target: T5, monkey MSLN on HEK293T-monkey MSLN …; assay: FACS, HEK293T-monkey MSLN cells
[16] = target: human MSLN on OVCAR3 tumor cells (human, UniProt Q13421 296-598); assay: FACS, OVCAR3 cells
[17] = target: T8, human MSLN-R3-his protein (human, UniProt Q13421 487-598); assay: ELISA; antibody 100 nM
T8 construct: also called hMSLN-R3-his; not shown: His tag
T8 sequence (Q13421 495-606): as the sequence (Q13421 495-606) above

[18] = target: T9, human MSLN-R2-his protein (human, UniProt Q13421 391-486); assay: ELISA; antibody 0.01 nM
T9 construct: also called hMSLN-R2-his; not shown: His tag
T9 sequence (Q13421 other isoform, or with tags, fused parts or gaps): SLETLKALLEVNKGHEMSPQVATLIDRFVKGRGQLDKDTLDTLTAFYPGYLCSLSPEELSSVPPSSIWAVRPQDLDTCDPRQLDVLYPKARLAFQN

[19] = target: T9, human MSLN-R2-his protein; assay: ELISA; antibody 0.0001 nM
[20] = target: T8, human MSLN-R3-his protein; assay: ELISA; antibody 10 nM
[21] = target: T8, human MSLN-R3-his protein; assay: ELISA; antibody 0.1 nM
[22] = target: T9, human MSLN-R2-his protein; assay: ELISA; antibody 0 nM (blank)
[23] = target: T8, human MSLN-R3-his protein; assay: ELISA; antibody 0.0001 nM
[24] = target: T8, human MSLN-R3-his protein; assay: ELISA; antibody 0 nM (blank)
[25] = target: T9, human MSLN-R2-his protein; assay: ELISA; antibody 10 nM
[26] = target: T9, human MSLN-R2-his protein; assay: ELISA; antibody 100 nM
[27] = target: T8, human MSLN-R3-his protein; assay: ELISA; antibody 1 nM
[28] = target: T10, human MSLN-R3-3 polypeptide (human); assay: ELISA; antibody 1 nM
T10 construct: also called hMSLN-R3-3

[29] = target: T9, human MSLN-R2-his protein; assay: ELISA; antibody 1 nM
[30] = target: T9, human MSLN-R2-his protein; assay: ELISA; antibody 1 nM; remark: listed apart in the source
[31] = target: T9, human MSLN-R2-his protein; assay: ELISA; antibody 0.001 nM
[32] = target: T8, human MSLN-R3-his protein; assay: ELISA; antibody 1 nM; remark: listed apart in the source
[33] = target: T8, human MSLN-R3-his protein; assay: ELISA; antibody 0.001 nM
[34] = target: T8, human MSLN-R3-his protein; assay: ELISA; antibody 0.01 nM
[35] = target: T9, human MSLN-R2-his protein; assay: ELISA; antibody 0.1 nM

- OD450 nm (human MSLN-R3 protein [1]): 0.08 OD
- OD450 nm (human MSLN-R3 protein [2]): 0.07 OD
- OD450 nm (human MSLN-R3 protein [3]): 2.36 OD
- OD450 nm (human MSLN-R3 protein [4]): 0.07 OD
- EC50 [5]: 99.8 nM
- binding result [6]: no binding
- OD450 nm (human MSLN-R3 protein [7]): 0.27 OD
- EC50 [8]: 12 nM
- Maximum_MFI [8]: 1280 MFI
- OD450 nm (human MSLN-R3 protein [9]): 1.19 OD
- OD450 nm (human MSLN-R3 protein [10]): 0.07 OD
- EC50 [11]: 90.1 nM
B1: F3.38.10-L1H5 (scFv, not shown: small tags and cut ends)
scFv: DIVMTQTPLSLPVTPGEPASISCRSSQSLIHSDGNTYLQWYLQKPGQSPQLLIYKVSNRFSGVPDRFSGSGSGTDFTLKISRVEAEDVGVYYCSQTTHVPFTFGQGTKLEIKGGGGSGGGGSGGGGSEVQLVQSGAEVKKPGASVKVSCKASGYIFTDYYMNWVRQAHGQRLEWMGVINPKNGVISHNQKFKGRVTITVDKSANTAYMELSSLRSEDTAVYYCANYGSRFYAMDYWGQGTTVTVSS
notes: also called S009-F3.38.10 humanized antibody VL1 + VH5

- binding result [12]: no binding (tested: up to 100 nM)
B2: F3.38.10-L1H5 (scFv, not shown: small tags and cut ends)
scFv: B1 scFv

- binding result [13]: no binding
B3: S009-F3.7.3 (antibody, human IgG1, kappa, V domains shown)
VH: EVNFEESGGGLVQPGGSMKLSCVASGFTFSNYWMNWVRQSPEKGLEWVAQIRLKSDNYATHYAESVKGRFTISRDDFKSSVYLQMNNLRAEDTGIYYCTVGTGGYWGQGTTLTVSS
VL: DIVLTQSPASLAMSLGKRATISCRASESVSIVGTNVIHWFQQKPGQPPKLLIYHASNLETGVPARFSGSGSGTDFTLTIDPVEEDDVAIYHCLQSRKIPWTFGGGTKLEIKR
notes: chimeric, human IgG1/kappa

- binding result [13]: no binding
B4: S009-F3.16.1 (antibody, human IgG1, kappa, V domains shown)
VH: B3 VH with N3K, T71S, F77S, T99S
VL: B3 VL with M13L, L15P, V32I, N35D, G72R, H91Y
notes: chimeric, human IgG1/kappa

- EC50 [14]: 1.63 nM
- Maximum_MFI [14]: 1490 MFI
- EC50 [15]: 7.97 nM
- Maximum_MFI [15]: 8910 MFI
- EC50 [16]: 4.75 nM
- Maximum_MFI [16]: 2260 MFI
B5: F7.33.24 (scFv)
chain: QVQLQQPGTELVKPGASVKLSCKASGYTFTSYWMHWVKQRPGQGLEWIGNVNPSNGGSNYNEKFKNKATLTVDKSSSTADMQLNSLTSEDSAVYYCAPHYIGSRPGFAYWGQGTLVTVSGGGGGSGGGGSGGGGSDIVMTQSQKFMSTSVGDRVSVTCKASQNVGTNIAWYQQKPGQSPKALIYSASYRYSGVPDRFTGSGSGTDFTLTITNVQSEDLAEYFCQQYNSYPLTFGGGTKVEIK

- OD450 nm [17]: 0.05
- OD450 nm [18]: 0.07
- OD450 nm [19]: 0.05
- OD450 nm [20]: 0.05
- OD450 nm [21]: 0.05
- OD450 nm [22]: 0.05
- OD450 nm [23]: 0.05
- OD450 nm [24]: 0.05
- OD450 nm [25]: 2.01
- OD450 nm [26]: 2.5
- OD450 nm [27]: 0.05
- OD450 nm [28]: 0.09
- OD450 nm [29]: 1.49
- OD450 nm [30]: 1.49
- OD450 nm [31]: 0.05
- OD450 nm [32]: 0.05
- OD450 nm [33]: 0.05
- OD450 nm [34]: 0.05
- OD450 nm [35]: 0.2
B6: Tab020 (YP223, rabbitIgG1) (antibody, V domains shown)
VH: QEQLEESGGDLVQPEGSLTLTCKASGLDFSSSYWICWVRQAPGKGLEWIGCRHTFTANTWSASWVNGRFTISRSTSLGTVDLKMTSLTAADTATYFCARDESNNDGWDFKLWGPGTLVTVSS
VL: AYDMTQTPASVSAAVGGTVTIKCQASQSISNYLAWYQQKPGQPPKLLIYQASTLAPGVSSRFKGSGSGTEFTLTISGVECADAATYYCQQGYTSSNVENVFGGGTGVVVGD
notes: Control antibody; VH and VL recombined into rabbit IgG1 CH and CL expression vectors; also called YP223 rabbit IgG1 antibody; rabbit anti-human MSLN antibody

- binding result [12]: no binding (tested: up to 100 nM)
B7: F3.38.10-L2H3a (scFv, not shown: small tags and cut ends)
scFv: DIVMTQSPDSLAVSLGERATINCRSSQSLIHSDGNTYLQWYQQKPGQSPKLLIYKVSNRFSGVPDRFSGSGSGTDFTLTISSLQAEDVAVYYCSQTTHVPFTFGQGTKLEIKGGGGSGGGGSGGGGSEVQLVQSGAEVKKPGASVKVSCKASGYIFTDYYMNWVRQAPGQRLEWMGVINPKQGVISHNQKFKGRVTITVDKSANTAYMELSSLRSEDTAVYYCANYGSRFYAMDYWGQGTTVTVSS
